Results published in US20220265819A1 (GEN2 NEUROSCIENCE, published 2022).

What was measured:
[1] = target: T1, full length recombinant human 2N4R tau (amino acids 1-441) (human, UniProt P10636 1-758); assay: SPR Biacore SCK, IgG on Protein A, tau analyte
T1 construct: Bought (rPeptide); recombinant, non-phosphorylated; also called recombinant tau
Procedure: (§1) 23.5 Assessment of antibody binding to tau (Biacore SCK analysis): Binding of anti-tau hIgG1 to full length recombinant 2N4R tau (Rpeptide; SEQ ID NO: 2) was assessed using the Biacore T200 (GE Healthcare, Chicago, Ill., USA) running Biacore T200 Evaluation Software V2.0.1. hIgG1 were immobilised on a Protein A capture sensor chip in running buffer (HBS-EP+ buffer containing 1 mg/mL BSA) at 25° C. captured to ˜50 RU at 10 μL/min. For single-cycle kinetics experiments, recombinant 2N4R tau was flowed at concentrations ranging from 5 nM to 40 nM (2-fold dilutions) with an association time of 150 s and a dissociation time of 200 s. Curves were compared to a reference cell that was mock immobilized (no antibody present).
Data were analysed using Langmuir (1:1) binding analysis, describing a 1:1 interaction at the surface: […]

[2] = target: full length pHrodo-labelled monomeric (P301S) 2N4R tau (human, UniProt P10636 1-758, labelled with pHrodo Red Maleimide); assay: cell-based or functional assay
Chain of full length pHrodo-labelled monomeric (P301S) 2N4R tau (P10636 other isoform, or with tags, fused parts or gaps P301S P301S): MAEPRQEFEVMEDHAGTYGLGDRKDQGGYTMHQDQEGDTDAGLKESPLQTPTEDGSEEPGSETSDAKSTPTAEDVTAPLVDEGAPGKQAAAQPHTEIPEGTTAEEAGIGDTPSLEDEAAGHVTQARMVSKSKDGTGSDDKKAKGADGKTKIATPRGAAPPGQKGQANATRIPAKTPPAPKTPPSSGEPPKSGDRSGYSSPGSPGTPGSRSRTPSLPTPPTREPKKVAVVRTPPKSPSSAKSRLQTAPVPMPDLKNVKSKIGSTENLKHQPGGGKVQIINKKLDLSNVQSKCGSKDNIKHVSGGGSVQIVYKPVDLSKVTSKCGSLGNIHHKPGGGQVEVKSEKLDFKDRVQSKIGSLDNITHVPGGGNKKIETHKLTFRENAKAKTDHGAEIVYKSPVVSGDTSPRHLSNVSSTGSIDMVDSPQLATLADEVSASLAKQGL

[3] = target: full length pHrodo-labelled aggregated (P301S) 2N4R tau (human, UniProt P10636 1-758, labelled with pHrodo Red Maleimide); assay: cell-based or functional assay
Chain of full length pHrodo-labelled aggregated (P301S) 2N4R tau (P10636 other isoform, or with tags, fused parts or gaps P301S P301S): as above

[4] = target: T1, full length recombinant human 2N4R tau …; assay: SPR Biacore MCK, purified IgG on Protein A, tau analyte
Procedure: Biacore multi-cycle kinetics (MCK) analyses for antibody binding to recombinant (non-phosphorylated) 2N4R tau are summarised in FIG. 23 and Table 8. […] Slight variations in RMAX are considered likely to be due to differences in ligand capture and not reflective of significant variation in antibody binding characteristics.
as §1, with “24.2” for “23.5”, “MCK” for “SCK”, “For single-cycle kinetics experiments, recombinant 2N4R tau was flowed at concentrations ranging from 5 nM to 40 nM (2-fold dilutions) with an association time of 150 s and a dissociation time of 200 s.” left out

[5] = target: T2, Bovine serum albumin (bovine, UniProt P02769 25-607); assay: ELISA on 1% BSA, HEK supernatant, anti-human IgG-HRP, n=1
T2 construct: Negative control antigen in ELISA; also called BSA
T2 sequence (P02769 25-607 limits assumed): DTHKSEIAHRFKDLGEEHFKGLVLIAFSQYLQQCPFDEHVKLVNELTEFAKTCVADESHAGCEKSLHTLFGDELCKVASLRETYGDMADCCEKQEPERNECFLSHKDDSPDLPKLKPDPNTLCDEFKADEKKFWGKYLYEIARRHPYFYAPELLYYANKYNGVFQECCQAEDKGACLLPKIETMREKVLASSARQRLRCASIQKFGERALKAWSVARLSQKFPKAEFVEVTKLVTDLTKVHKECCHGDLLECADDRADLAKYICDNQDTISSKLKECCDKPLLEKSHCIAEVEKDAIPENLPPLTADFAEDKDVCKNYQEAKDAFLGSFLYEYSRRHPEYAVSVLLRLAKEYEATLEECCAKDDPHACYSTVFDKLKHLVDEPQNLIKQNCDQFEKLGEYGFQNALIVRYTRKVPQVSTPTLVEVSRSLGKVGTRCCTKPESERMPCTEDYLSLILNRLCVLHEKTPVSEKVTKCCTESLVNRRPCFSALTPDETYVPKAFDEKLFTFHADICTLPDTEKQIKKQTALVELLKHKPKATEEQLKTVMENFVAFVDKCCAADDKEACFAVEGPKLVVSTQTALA
Procedure: (§2) Antigen was removed from wells and the plates were then blocked for 1 hour at RT with 5% dried milk in 1×TBS. Blocking solution was removed, HEK293 cell supernatant (1:100 in 1% BSA/1×TBS) was added to relevant wells, and plates were incubated for 1 hour at RT with gentle shaking. Plates were then washed four times with TBS/0.1% Tween (TBST). Goat-anti-human IgG-HRP antibody (ThermoFisher Scientific, Waltham, Mass. USA), diluted 1:2000 in 5% milk/TBS, was added to each well and plates were incubated for 1 hour at RT with gentle shaking before being washed four times with TBST. 3,3′,5,5′-tetramethylbenzidine (TMB) ELISA solution was added to each well and plates were incubated for 15 mins at RT. An equal volume of 1 M sulfuric acid was added to each well and OD was measured at 450 nm.

[6] = target: T2, Bovine serum albumin; assay: ELISA on 1% BSA, HEK293F supernatant, anti-rabbit IgG-HRP, n=1
Procedure: FIG. 9. A panel of anti-tau IgG bind to linear immunogen peptide and full length recombinant 2N4R tau in ELISA format. […] Binding of anti-tau IgG was detected using an HRP-conjugated anti-rabbit secondary antibody and data shown are from a representative experiment (n=1).
as §2, with “removed. HEK293F” for “removed, HEK293”, “(10 μg/mL, to 0.0001 μg/mL” for “(1:100”, “Anti-rabbit” for “Goat-anti-human”, “(Sigma. St Louis, Mo.,” for “(ThermoFisher Scientific, Waltham, Mass.”, “1:5000” for “1:2000”

[7] = target: T1, full length recombinant human 2N4R tau …; assay: ELISA, HEK293F supernatant on coated tau
Procedure: as §2, with “removed. HEK293F” for “removed, HEK293”, “(10 μg/mL, to 0.0001 μg/mL” for “(1:100”, “Anti-rabbit” for “Goat-anti-human”, “(Sigma. St Louis, Mo.,” for “(ThermoFisher Scientific, Waltham, Mass.”, “1:5000” for “1:2000”

[8] = target: T2, Bovine serum albumin; assay: phage ELISA
Procedure: 10.1 Phage ELISA: Supernatants prepared from bacterial cultures infected with phage displaying scFv were tested for binding to full length recombinant 2N4R tau (100 ng/well), target peptide (SEQ ID NO: 13) conjugated to BSA or transferrin (1 μg/well) or BSA (1% in TBS) using standard methods. Antigen was coated onto ELISA plates, then removed, and plates were blocked for 1 h with 5% dried milk in TBS. Samples were diluted 1:25 in 1% BSA/TBS then added to the ELISA plate for 1 h at room temperature (RT). Plates were then washed ×4 with TBS/0.1% Tween (TBST). Alpha-M13-HRP antibody (Abcam, Cambridge, UK) was added (1:5000 dilution in 5% milk/TBS) and incubated for 1 h at RT before washing ×4. TMB ELISA solution was added to each well for 10 min at RT, followed by 1 M sulphuric acid. OD was then measured at 450 nm.

T1 sequence (P10636 other isoform, or with tags, fused parts or gaps limits assumed): as the sequence (P10636 other isoform, or with tags, fused parts or gaps P301S P301S) above, with S301P counted along it

B1: Clone 32 (VH5Vκ4), humanised variant of clone #28, human IgG1 (antibody, V domains shown)
VH: QVQLQESGPGLVKPSETLSLTCTVSGFSLNNYDMSWVRQAPGKGLEWIGTVSTTYRRYYASWAKGRFTISRDNSKNTLDLQMTSLTAEDTATYFCAASGIWGRGTLVTVSS
VL: DIQMTQSPSTLSASVGDRVTITCQSSQRVYSNYLAWYQQKPGQPPKRLIFLASTLESGVPSRFSGSGSGTEFTLTISSLQPDDFATYYCAGTYTGSIWAFGGGTKVEIK
notes: also called VH5VK4; VH5Vk4
Kd [1]: 67.3 nM | Relative KD [1]: 1.49 fold vs VH0VK0 | koff [1]: 0.00239 s⁻¹ | kon [1]: 35500 M⁻¹ s⁻¹ | inhibition of uptake of monomeric tau into human iPSC-derived astrocytes [2]: 45.7 % inhibition | inhibition of uptake of monomeric tau into human iPSC-derived neurons [2]: 64.2 % inhibition | increase of uptake of aggregated tau into human iPSC-derived microglia [3]: 243 % increase | inhibition of uptake of aggregated tau into human iPSC-derived astrocytes [3]: 45.7 % inhibition | inhibition of uptake of aggregated tau into human iPSC-derived neurons [3]: 41.3 % inhibition | Kd [4]: 33.6 nM | Relative KD [4]: 1.35 fold vs VH0VK0 | koff [4]: 0.00239 s⁻¹ | kon [4]: 71100 M⁻¹ s⁻¹ | binding result [5]: no binding (tested: supernatant 1:100)

B2: Clone 24 (VH3Vκ4), humanised variant of clone #28, human IgG1 (antibody, V domains shown)
VH: QVQLQESGPGLVKPSETLSLTCTVSGFSLNNYDMSWVRQAPGKGLEWIGTVSTTYRRYYASWAKGRFTISKTSSTTVDLQMTSLTAEDTATYFCAASGIWGRGTLVTVSS
VL: DIQMTQSPSTLSASVGDRVTITCQSSQRVYSNYLAWYQQKPGQPPKRLIFLASTLESGVPSRFSGSGSGTEFTLTISSLQPDDFATYYCAGTYTGSIWAFGGGTKVEIK
notes: also called VH3VK4; VH3Vk4
Kd [1]: 21.2 nM | Relative KD [1]: 0.47 fold vs VH0VK0 | koff [1]: 0.00146 s⁻¹ | kon [1]: 68900 M⁻¹ s⁻¹ | inhibition of uptake of monomeric tau into human iPSC-derived astrocytes [2]: 31.5 % inhibition | inhibition of uptake of monomeric tau into human iPSC-derived neurons [2]: 63.3 % inhibition | increase of uptake of aggregated tau into human iPSC-derived microglia [3]: 267 % increase | inhibition of uptake of aggregated tau into human iPSC-derived astrocytes [3]: 30.8 % inhibition | inhibition of uptake of aggregated tau into human iPSC-derived neurons [3]: 61.4 % inhibition | Kd [4]: 17.1 nM | Relative KD [4]: 0.69 fold vs VH0VK0 | koff [4]: 0.0013 s⁻¹ | kon [4]: 76100 M⁻¹ s⁻¹ | binding result [5]: no binding (tested: supernatant 1:100)

B3: Clone 6 rabbit monoclonal IgG (antibody, V domains shown)
VH: QSVEESGGRLVTPGTPLTLTCTVSGFSLSSYDMSWVRQAPGKGLEWIGTIGRYYNTYYATWAKGRFTISKTSSTTVDLKMTSLTTEDTATYFCASSGIWGPGTLVTVSL
VL: AQVLTQTASPVSAAVGGTVTINCQSSQTVYNNNYLSWYQQKPGQPPKRLIYLASTLESGVPSRFSGSGSGTQFTLTISGVVCDDAATYYCAGTYSGSIWAFGGGTEVVVKG
notes: Rabbit IgG expressed in HEK293F; also called P2-C11; A4
binding result [6]: no binding (tested: supernatant 1:50) | OD (ELISA) [7]: 0.3 OD

B4: Clone 7 rabbit monoclonal IgG (antibody, V domains shown)
VH: QSVEESGGRLVTPGTPLTLTCTVSGFSLSSYDMSWVRQAPGKGLEWIGTIGRYYNTYYATWAKGRFTISKTSSTTVDLKMTSLTTEDTATYFCASSGIWGPGTLVTVSL
VL: AQVLTQTASPVSAAVGGTVTINCQSSQTVYNNNYLSWYQQKPGQPPKRLIYLASTLESGVPSRFSGSGSGTQFTLTISGVVCDDAATYYCAGTYSGSIWAFGGGTEVVVKG
notes: Rabbit IgG expressed in HEK293F; also called P1-D10; D2
binding result [6]: no binding (tested: supernatant 1:50) | OD (ELISA) [7]: 0.3 OD

B5: Clone 8 rabbit monoclonal IgG (antibody, V domains shown)
VH: QSLEESGGRLVAPGTPLTLTCTVSGFSLSSYDMSWVRQAPGRGLEWIGTISSSYRTYYASWAKGRFTISKTSSTTVDLKMTSLTTEDTATYFCASSGIWGPGTLVTVSL
VL: AQVLTQTASPVSAAVGGTVTINCQSSQRVYNNYLAWYQQKPGQPPKRLIYLASTLESGVPSRFSGSGSGTQFTLTISGVVCDDAATYYCAGTYSGSIWAFGGGTEVVVKG
notes: Rabbit IgG expressed in HEK293F; also called P2-F3; H2
binding result [6]: no binding (tested: supernatant 1:50) | OD (ELISA) [7]: 0.3 OD

B6: Clone 4 rabbit monoclonal IgG (antibody, V domains shown)
VH: QSVEESGGRLVTPGTPLTLTCTVSGFSLSSYDMSWVRQAPGKGLEWIGTIGRYYNTYYATWAKGRFTISKTSSTTVDLKMTSLTTEDTATYFCASSGIWGPGTLVTVSL
VL: AQVLTQTASPVSAAVGGTVTINCQSSQTVYNNNYLSWYQQKPGQPPKRLIYLASTLESGVPSRFSGSGSGTQFTLTISGVVCDDAATYYCAGTYSGSIWAFGGGTEVVVKG
notes: Rabbit IgG expressed in HEK293F; also called P2-E5; B3
binding result [6]: no binding (tested: supernatant 1:50) | OD (ELISA) [7]: 0.3 OD

B7: Clone 3 rabbit monoclonal IgG (antibody, V domains shown)
VH: QSVEESGGRLVTPGTPLTLTCTASGFSLSRYDMSWVRQAPGKGLEWIGTISGSYNTYYMSWAKGRFTISKTSSTTVDLKMTSLTTEDTATYFCASSGIWGPGTLVTVSL
VL: AQVLTQTASPVSAAVGGTVTINCQSSQRVYSNYLSWYQQKPGQPPRRLIWLASTLESGVPSRFSGSGSGTQFTLTISGVVCDDAATYYCAGTYSGSIWAFGGGTEVVVKG
notes: Rabbit IgG expressed in HEK293F; also called P2-B12; D4
binding result [6]: no binding (tested: supernatant 1:50) | OD (ELISA) [7]: 0.3 OD

B8: Clone 5 rabbit monoclonal IgG (antibody, V domains shown)
VH: QSLEESGGRLVAPGTPLTLTCTVSGFSLSSYDMSWVRQAPGRGLEWIGTISSSYRTYYASWAKGRFTISKTSSTTVDLKMTSLTTEDTATYFCASSGIWGPGTLVTVSL
VL: AQVLTQTASPVSAAVGGTVTINCQSSQRVYNNYLAWYQQKPGQPPKRLIYLASTLESGVPSRFSGSGSGTQFTLTISGVVCDDAATYYCAGTYSGSIWAFGGGTEVVVKG
notes: Rabbit IgG expressed in HEK293F; also called P1-B2; A1
binding result [6]: no binding (tested: supernatant 1:50) | OD (ELISA) [7]: 0.3 OD

B9: Clone 13 human scFv (phage displayed) (scFv, V domains shown)
VH: ESGGGVVKPGGSLRLACEASGFTFNKYAMSWVRQAPGKGLEWVSGNSGSGNSTYYADSVKGRFTISRDNSKNILYLDMNNLRAEDTALYYCAKTRGAGRRKPYGMDVWGHGTTVTVSS
VL: VMTQSPSTLSLSPGERATLSCRASQSVANNYLAWYQHKPGQAPRVLIYGASSRATGIPDRFSGSGSGTDFTLTISRLEPEDFAVYYCQQYGSSPRTFGGGTKLEIK
notes: also called rx9; D12
binding result [8]: no binding (tested: 1:25 phage supernatant)
